In US20250355002A1:

Target: recombinant cryptic HDGFL2 with C-terminal glycine serine linker and 6-HisTag (human) (UniProt Q7Z4V5)
Assay: MSD sandwich ELISA on HeLa overexpression lysates; mouse IgG isotype control in place of the capture antibody

Sequence of UniProt Q7Z4V5 (Q7Z4V5 other isoform, or with tags, fused parts or gaps limits assumed): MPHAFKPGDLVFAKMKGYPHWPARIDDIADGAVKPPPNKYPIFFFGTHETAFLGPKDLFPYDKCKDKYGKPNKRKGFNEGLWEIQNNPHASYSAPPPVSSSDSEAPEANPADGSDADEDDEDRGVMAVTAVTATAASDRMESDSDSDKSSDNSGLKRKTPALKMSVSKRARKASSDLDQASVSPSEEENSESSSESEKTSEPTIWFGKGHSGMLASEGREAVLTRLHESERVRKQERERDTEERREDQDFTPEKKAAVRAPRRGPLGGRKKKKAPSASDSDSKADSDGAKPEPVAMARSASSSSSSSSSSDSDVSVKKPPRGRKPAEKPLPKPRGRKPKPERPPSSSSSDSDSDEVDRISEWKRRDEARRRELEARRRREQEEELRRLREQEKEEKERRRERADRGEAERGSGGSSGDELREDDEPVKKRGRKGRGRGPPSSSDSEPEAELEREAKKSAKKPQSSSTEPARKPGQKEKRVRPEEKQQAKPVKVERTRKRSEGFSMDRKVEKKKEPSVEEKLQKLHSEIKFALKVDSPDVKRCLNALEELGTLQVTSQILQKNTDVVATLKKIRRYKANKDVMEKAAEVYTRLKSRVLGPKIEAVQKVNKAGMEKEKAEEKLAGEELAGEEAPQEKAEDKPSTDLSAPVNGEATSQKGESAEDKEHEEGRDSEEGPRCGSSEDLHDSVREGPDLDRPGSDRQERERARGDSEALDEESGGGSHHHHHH

ratio of cryptic/WT HDGFL2 lysate MSD signal: 1
Substance: mouse IgG isotype control (for the capture antibody)
